Assay results as given in PMC9113893, “Carbon Material Hybrid Construction on an Aptasensor for Monitoring Surgical Tumors”.

Molecular target: carcinoembryonic antigen (CEA) (human, UniProt P06731 35-685)
Assay: electrochemical aptasensor (interdigitated electrode, sandwich); immobilized aptamer; 0.5-1000 ng/mL CEA in PBS, or spiked in 1:100 human serum; LOD 0.5 ng/mL (not a Kd); PBS or 1:100 diluted human serum; graphene-modified IDE blocked with 1% BSA; pH, salt and temperature not stated
Details: protein: commercial

carcinoembryonic antigen (CEA), sequence (P06731 35-685): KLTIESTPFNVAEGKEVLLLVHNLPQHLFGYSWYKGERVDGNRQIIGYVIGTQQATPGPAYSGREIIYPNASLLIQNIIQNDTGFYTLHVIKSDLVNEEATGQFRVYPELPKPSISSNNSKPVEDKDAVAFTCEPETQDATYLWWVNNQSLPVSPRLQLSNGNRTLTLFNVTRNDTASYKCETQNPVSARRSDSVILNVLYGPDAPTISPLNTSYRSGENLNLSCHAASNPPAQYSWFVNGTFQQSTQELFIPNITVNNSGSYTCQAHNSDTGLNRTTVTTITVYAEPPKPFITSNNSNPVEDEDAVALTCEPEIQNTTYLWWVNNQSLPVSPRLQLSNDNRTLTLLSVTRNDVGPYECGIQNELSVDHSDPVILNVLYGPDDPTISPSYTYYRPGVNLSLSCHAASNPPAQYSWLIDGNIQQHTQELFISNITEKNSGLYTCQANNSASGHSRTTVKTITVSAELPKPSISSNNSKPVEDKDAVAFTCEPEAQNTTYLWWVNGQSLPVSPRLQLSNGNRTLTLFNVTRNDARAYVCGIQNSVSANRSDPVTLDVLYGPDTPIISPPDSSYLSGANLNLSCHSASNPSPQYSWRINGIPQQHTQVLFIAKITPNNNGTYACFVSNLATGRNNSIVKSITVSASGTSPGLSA

B1: anti-CEA capture aptamer (ssDNA)
DNA: TATCCAGCTTATTCAATT
modifications: 3'-NH2
binding result: binds
